The target of assay [1] is T1, bS1c, chloroplast ribosomal protein S1 (spinach (Spinacia oleracea) (endogenous …, UniProt P29344 42-411)).
T1 sequence (looked up): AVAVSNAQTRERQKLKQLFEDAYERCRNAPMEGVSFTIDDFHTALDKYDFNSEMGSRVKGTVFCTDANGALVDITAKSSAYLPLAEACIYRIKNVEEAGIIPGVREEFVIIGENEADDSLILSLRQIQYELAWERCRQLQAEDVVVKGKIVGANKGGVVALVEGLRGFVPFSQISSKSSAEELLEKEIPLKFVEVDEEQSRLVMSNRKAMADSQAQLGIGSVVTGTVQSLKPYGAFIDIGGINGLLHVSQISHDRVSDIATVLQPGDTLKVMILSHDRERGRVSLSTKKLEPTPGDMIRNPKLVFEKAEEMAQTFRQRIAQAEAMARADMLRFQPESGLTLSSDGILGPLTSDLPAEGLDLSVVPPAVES
In words: cryo-EM structure.

For assay [2], the target named is T2, uS13c, chloroplast ribosomal protein S13 (spinach (Spinacia oleracea) (endogenous …, UniProt P82163 48-172)).
T2 sequence (looked up): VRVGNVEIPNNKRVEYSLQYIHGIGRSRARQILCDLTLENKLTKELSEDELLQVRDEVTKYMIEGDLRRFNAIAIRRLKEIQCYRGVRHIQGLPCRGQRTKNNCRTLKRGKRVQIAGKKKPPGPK
The experiment in a line: cryo-EM structure.

B1: uS2c, chloroplast ribosomal protein S2 (natural protein, UniProt P08242 1-236, looked up)
chain: MTRRYWNINLEEMMEAGVHFGHGTRKWNPRMSPYISAKCKGIHIINLTRTARFLSEACDLVFDASSRGKQFLIVGTKNKAADSVARAAIRARCHYVNKKWLGGMLTNWSTTETRLHKFRDLRMEQTAGRLARLPKRDAAVVKRQLSHLQTYLGGIKYMTGLPDIVIIVDQQEEYTALRECITLGIPTICLIDTNCNPDLADISIPANDDAIASIRLILTKLVFAICEGRSSYIRNP
As to B1, the binding result in assay [1] is “binds”.
As for GRGDRKTAKGKRFNHSFGNARPKNKNKGRGPPKAPIFPKGDPSQKED (natural protein, UniProt P47910 55-101, looked up) [bTHXc (PSRP4), plastid-specific ribosomal protein of the chloroplast ribosome small subunit], in assay [2], the binding result was “binds”.

The values above are taken from paper PMC5737520 (Nucleic Acids Research, 2017).
